Assay results from publication PMC12704761, “RAD51AP1 is a versatile RAD51 modulator” (Proceedings of the National Academy of Sciences of the …, 2025).

B1: RAD51AP1 (RAD51 associated protein 1), full-length wild type [not stated] / RAD51 recombinase [not stated] (parent complex)
chain 1: MVRPVRHKKPVNYSQFDHSDSDDDFVSATVPLNKKSRTAPKELKQDKPKPNLNNLRKEEIPVQEKTPKKRLPEGTFSIPASAVPCTKMALDDKLYQRDLEVALALSVKELPTVTTNVQNSQDKSIEKHGSSKIETMNKSPHISNCSVASDYLDLDKITVEDDVGGVQGKRKAASKAAAQQRKILLEGSDGDSANDTEPDFAPGEDSEDDSDFCESEDNDEDFSMRKSKVKEIKKKEVKVKSPVEKKEKKSKSKCNALVTSVDSAPAAVKSESQSLPKKVSLSSDTTRKPLEIRSPSAESKKPKWVPPAASGGSRSSSSPLVVVSVKSPNQSLRLGLSRLARVKPLHPNATST
chain 2: MAMQMQLEANADTSVEEESFGPQPISRLEQCGINANDVKKLEEAGFHTVEAVAYAPKKELINIKGISEAKADKILAEAAKLVPMGFTTATEFHQRRSEIIQITTGSKELDKLLQGGIETGSITEMFGEFRTGKTQICHTLAVTCQLPIDRGGGEGKAMYIDTEGTFRPERLLAVAERYGLSGSDVLDNVAYARAFNTDHQTQLLYQASAMMVESRYALLIVDSATALYRTDYSGRGELSARQMHLARFLRMLLRLADEFGVAVVITNQVVAQVDGAAMFAADPKKPIGGNIIAHASTTRLYLRKGRGETRICKIYDSPCLPEAEAMFAINADGVGDAKD

Variants of: B1
Assay: BLI; RAD51 about 2.5 µM (highest point, read from the x axis); read off a plot

Variant | response
chain 1 R333A, chain 1 L334A, chain 1 L336A | ~0.005 nm
